Values of other authors in paper PMC10968392.

Target: SARS-CoV-2 spike protein (cited Kd) (SARS-CoV-2) (UniProt P0DTC2)
Test: not stated here (previous study)
Conditions: PBSMCT: DPBS, 1 mM MgCl2, 1 mM CaCl2, 0.025% Tween-20; 25 °C, 1 h; pH not stated

Row | Sequence | Kd
1 | GAACATTGGCGTCCGTGAGCAGCTCGTGGTTGTTTGCTTGTATACTTTTGTGGTTTATCTTGTTTCTGATCACTTCCTCAAACGCCCAA [SpS1-C4 aptamer] | 1.81 nM
2 | GAACATTGGCGTCCGTGAGTGAGACCATAGTCCAGCGAACTAAACCTACCCTAAAGGGCAAGGAAGACGGGCACTTCCTCAAACGCCCAA [SpS1-C1 aptamer] | 1.47 nM
